The results in this text go back to patent US20150133308A1 (KOREA ADVANCED INSTITUTE OF SCIENCE AND TECHNOLOGY, published 2015).

The assay addresses T1, human interleukin-6 (human, UniProt P05231 30-212).
T1 construct: also called hIL-6; IL-6
In words: phage ELISA, 96-well plate coated with IL-6 and BSA. On the technique in general: An ELISA detects its analyte on a solid surface through an enzyme-linked reagent.

B1: r-B10 (designed binder)
chain: ETITVSTPIKQIFPDDAFAETIKANLKKKSVTDAVTQNELNSIDQIIANNSDIKSVQGIQYLPNVRYLALGGNKLHDISALKELTNLTYLVLDPNQLQSLPNGVFDKLTNLKELSLWTNQLQSLPDGVFDKLTNLTYLNLAHNQLQSLPKGVFDKLTNLTELDLSYNQLQSLPEGVFDKLTQLKDLRLYQNQLKSVPDGVFDRLTSLQYIWLHDNPWDCTCPGIRYLSEWINKHSGVVRNSAGSVAPDSAKCSGSGKPVRSIICPT
notes: on phage in the ELISA
As for B1, the “OD450 on IL-6 relative to BSA” value was no less than 10 fold.

B2: r-F7 (designed binder)
chain: B1 chain
notes: on phage in the ELISA
For the molecule B2, the “OD450 on IL-6 relative to BSA” value was no less than 10 fold.
